Paper doi:10.1101/2024.07.31.606116
One block for each substance: values may come before it.

What was measured:
[1] = target: RAMP1 ECD-CTR ECD fusion protein (human) (UniProt O60894); experiment: fluorescence polarisation
amylin receptor ECDs = experiment: fluorescence polarisation
[2] = target: full-length human calcitonin receptor C-terminally tagged with NanoLuc luciferase (human) (UniProt P30988)
[3] = target: RAMP2 ECD-CTR ECD fusion protein (human) (UniProt O60895); experiment: fluorescence polarisation
Chain of UniProt O60895 (O60895 whole entry, looked up, the tested form may be a part): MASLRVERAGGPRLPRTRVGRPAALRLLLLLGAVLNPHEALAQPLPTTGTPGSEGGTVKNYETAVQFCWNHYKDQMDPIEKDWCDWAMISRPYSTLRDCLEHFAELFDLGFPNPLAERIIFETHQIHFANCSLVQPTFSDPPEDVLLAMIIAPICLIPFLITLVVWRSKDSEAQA

[4] = target: RAMP3 ECD-CTR ECD fusion protein (human) (UniProt O60896); experiment: fluorescence polarisation
Chain of UniProt O60896 (O60896 whole entry, the tested form may be a part): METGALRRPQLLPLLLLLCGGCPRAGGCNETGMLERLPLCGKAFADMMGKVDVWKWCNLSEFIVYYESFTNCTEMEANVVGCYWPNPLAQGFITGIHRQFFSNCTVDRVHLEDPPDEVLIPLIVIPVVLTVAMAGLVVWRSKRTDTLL

[5] = target: calcitonin receptor (CTR) extracellular domain (ECD) (human); experiment: fluorescence polarisation

Chain of UniProt O60894 (O60894 whole entry, the tested form may be a part): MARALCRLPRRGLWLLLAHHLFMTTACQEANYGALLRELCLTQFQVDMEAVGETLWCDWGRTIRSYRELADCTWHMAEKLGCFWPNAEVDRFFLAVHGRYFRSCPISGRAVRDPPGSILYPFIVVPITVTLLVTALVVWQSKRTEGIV
Chain of UniProt P30988 (P30988 25-474): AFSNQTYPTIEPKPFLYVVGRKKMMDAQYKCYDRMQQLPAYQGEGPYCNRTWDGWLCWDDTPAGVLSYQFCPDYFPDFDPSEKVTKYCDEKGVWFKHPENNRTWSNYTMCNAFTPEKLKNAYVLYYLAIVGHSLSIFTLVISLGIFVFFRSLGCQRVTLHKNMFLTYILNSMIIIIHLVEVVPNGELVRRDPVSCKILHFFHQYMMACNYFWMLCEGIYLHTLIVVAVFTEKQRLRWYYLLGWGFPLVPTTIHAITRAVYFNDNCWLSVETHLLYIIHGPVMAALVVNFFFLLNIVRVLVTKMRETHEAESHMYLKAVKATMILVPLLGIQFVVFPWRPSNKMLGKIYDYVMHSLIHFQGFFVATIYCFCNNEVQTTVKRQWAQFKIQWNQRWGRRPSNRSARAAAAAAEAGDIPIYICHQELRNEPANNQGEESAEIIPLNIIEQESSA

fold increase in affinity over rat amylin(27–37) L27Y/Y37P [1]: 4 fold
Substance: rat amylin(27–37) L27Y/Y37P plus P29R (peptide)

Ki (amylin receptor ECDs): 4000 to 11000 nM
Substance: rat amylin(27–37) with L27Y and Y37P double mutations (peptide)

fold increase in affinity over rat amylin(27–37) L27Y/Y37P [1]: 2 fold
Substance: rat amylin(27–37) L27W/Y37P (peptide)

EC50 of receptor activation (mini-Gs recruitment BRET, HEK293T cells) [2]: 72 nM
Substance: pramlintide (peptide)

fold increase in affinity over rat amylin(27–37) L27Y/Y37P [1]: 3.6 fold
Substance: rat amylin(27–37) L27Y/Y37P plus S34P (peptide)

fold increase in affinity over rat amylin(27–37) L27Y/Y37P [1]: 2.5 fold
Substance: rat amylin(27–37) L27Y/Y37P plus S34A (peptide)

Kd [1]: 77 nM
Kd [3]: 67 nM
Kd [4]: 252 nM
Substance: FITC-labeled AC413(6–25) with Y25P mutation (peptide)

fold increase in affinity over rat amylin(27–37) L27Y/Y37P [1]: 4 fold
Substance: rat amylin(27–37) L27Y/Y37P plus P29K (peptide)

fold increase in affinity over rat amylin(27–37) Y37P [1]: 5 fold
fold increase in affinity over rat amylin(27–37) Y37P [4]: 3 fold
Substance: rat amylin(27–37) with Y37HYP (hydroxyproline) mutation (peptide)

Kd [5]: 500 nM
Substance: FITC-labeled salmon calcitonin (sCT) fragment(22–32) (peptide)

fold decrease in affinity against the peptide with S34P [1]: 9 fold
Substance: rat amylin(27–37) L27Y/Y37P plus S34HYP (hydroxyproline) (peptide)
